T1: Pfu4M FEN1 (Pyrococcus furiosus, UniProt O93634 SEQ:1-340)
T1 chain: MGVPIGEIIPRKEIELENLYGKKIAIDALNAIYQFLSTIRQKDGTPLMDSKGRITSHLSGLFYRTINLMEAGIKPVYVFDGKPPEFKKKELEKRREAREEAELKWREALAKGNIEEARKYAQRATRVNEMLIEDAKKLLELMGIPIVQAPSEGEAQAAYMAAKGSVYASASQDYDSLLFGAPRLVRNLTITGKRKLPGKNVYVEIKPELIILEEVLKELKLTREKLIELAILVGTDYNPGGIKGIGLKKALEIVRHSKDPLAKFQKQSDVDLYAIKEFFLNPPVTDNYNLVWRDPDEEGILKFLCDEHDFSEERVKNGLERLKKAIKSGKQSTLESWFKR

T2: Pho FEN1 (Pyrococcus horikoshii, UniProt O50123 SEQ:1-343)
T2 sequence: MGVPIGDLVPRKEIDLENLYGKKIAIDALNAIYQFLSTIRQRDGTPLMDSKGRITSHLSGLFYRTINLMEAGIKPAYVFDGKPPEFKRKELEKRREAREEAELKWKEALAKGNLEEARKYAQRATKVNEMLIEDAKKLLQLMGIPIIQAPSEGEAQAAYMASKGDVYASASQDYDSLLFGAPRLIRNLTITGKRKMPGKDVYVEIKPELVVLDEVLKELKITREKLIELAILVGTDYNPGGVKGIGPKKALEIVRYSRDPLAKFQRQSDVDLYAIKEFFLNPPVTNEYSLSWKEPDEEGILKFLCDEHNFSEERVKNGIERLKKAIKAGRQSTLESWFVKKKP

T3: Pho4M FEN1 (Pyrococcus horikoshii, UniProt O50123 SEQ:1-343)
T3 chain: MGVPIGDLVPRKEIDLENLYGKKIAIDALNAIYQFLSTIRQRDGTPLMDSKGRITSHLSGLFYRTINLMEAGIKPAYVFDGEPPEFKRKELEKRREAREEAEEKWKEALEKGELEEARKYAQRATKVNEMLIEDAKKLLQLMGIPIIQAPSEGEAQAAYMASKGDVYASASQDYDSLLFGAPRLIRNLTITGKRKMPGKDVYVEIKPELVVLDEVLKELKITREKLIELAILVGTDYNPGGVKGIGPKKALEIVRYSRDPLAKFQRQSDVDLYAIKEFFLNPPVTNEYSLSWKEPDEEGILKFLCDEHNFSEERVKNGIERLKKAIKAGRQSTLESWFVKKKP

T4: Pho3M FEN1 (Pyrococcus horikoshii, UniProt O50123 SEQ:1-343)
T4 chain: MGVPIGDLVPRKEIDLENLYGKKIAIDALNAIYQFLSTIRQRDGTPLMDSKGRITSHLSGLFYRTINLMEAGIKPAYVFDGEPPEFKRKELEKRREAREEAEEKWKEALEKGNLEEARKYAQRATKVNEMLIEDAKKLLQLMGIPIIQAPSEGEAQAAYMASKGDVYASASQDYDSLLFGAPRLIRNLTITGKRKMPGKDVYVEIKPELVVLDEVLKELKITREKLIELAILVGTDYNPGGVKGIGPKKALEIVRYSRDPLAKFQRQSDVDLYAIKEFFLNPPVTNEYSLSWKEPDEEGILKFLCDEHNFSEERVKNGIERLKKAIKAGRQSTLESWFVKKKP

T5: Pfu2M FEN1 (Pyrococcus furiosus, UniProt O93634 SEQ:1-340)
T5 chain: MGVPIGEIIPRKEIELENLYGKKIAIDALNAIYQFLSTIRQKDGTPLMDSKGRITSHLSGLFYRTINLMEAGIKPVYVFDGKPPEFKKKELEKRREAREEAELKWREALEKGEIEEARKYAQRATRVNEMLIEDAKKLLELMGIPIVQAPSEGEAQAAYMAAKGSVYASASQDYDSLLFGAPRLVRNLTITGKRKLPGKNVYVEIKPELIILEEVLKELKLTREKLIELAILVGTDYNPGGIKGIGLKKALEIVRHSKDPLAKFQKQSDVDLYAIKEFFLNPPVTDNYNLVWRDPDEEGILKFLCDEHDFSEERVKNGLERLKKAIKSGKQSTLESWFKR

B1: X-structure 203-81-2/203-91-2 (structured_DNA)
DNA 1: TTTTCAACTGCTTAGAGAATCTAAGCAGTTGGTGCGCCTCGTTAA
DNA 2: AACGAGGCGCACATT
modifications: 3'-NH2 on first strand
B2: INVADER substrate 594-12-1/203-91-1 (structured_DNA)
DNA 1: TTTTTCACGGCAGTTGGTGCGCCTCGGAACGAGGCGCACA
DNA 2: TTTTCAACTGCCGTGA

Legend:
Test in all cases: cleavage_in_vitro; rate vs Pfu FEN1
Pfu4M FEN1 = target: T1, Pfu4M FEN1
Method: (§1) For the evaluation of chimeric enzymes, standard tests were performed to measure the performance and specificity of the enzymes. […] 10 μl reactions are run at 59 C for between 5 to 60 minutes depending on the enzyme. Reactions are stopped by the addition of 10 μl of 95% formamide, 0.02% methyl violet. 1 μl of the mixture is run on a denaturing 20% acrylamide gel and electrophoresed for 15 minutes or until good separation is achieved between cleaved and uncleaved probe. The gels are scanned using an FMBIO fluorescent gel scanner and the bands are quantified with FMBIOAnalysis software. Cleavage rates are determined from the percent probe cleaved. Cleavage rate for the INVADER substrate is defined as the number of probe molecules cleaved per target molecule per minute. In Table 5, below, the cleavage rates for the mutant enzymes are compared to the cleavage rates for unmodified Pfu FEN1 enzyme on the INVADER assay and X-structure substrates.
(§2) The X-structure substrate is used to determine the amount of background cleavage an enzyme will carry out in an INVADER reaction. It mimics the structure created by uncut primary probe and secondary FRET cassette in the INVADER squared reaction. […] 10 μl reactions are run at 59 C for between 3 to 30 minutes depending on the enzyme. Reactions are stopped by the addition of 10 μl of 95% formamide, 0.02% methyl violet. 1 μl of the mixture is run on a denaturing 20% acrylamide gel and electophoresed for 15 minutes or until good separation is achieved between cleaved and uncleaved probe. The gels are scanned using an FMBIO fluorescent gel scanner and the bands are quantified with FMBIOAnalysis software. Cleavage rates are determined from the percent probe cleaved.

Pho FEN1 = target: T2, Pho FEN1; conditions: label: 5'-TET; X-structure
Method: as §1, §2

Pho4M FEN1 = target: T3, Pho4M FEN1
Method: as §1, §2

Pho3M FEN1 = target: T4, Pho3M FEN1
Method: as §1, §2

Pfu2M FEN1 = target: T5, Pfu2M FEN1
Method: as §1, §2

[1] = label: 5'-biotin target, 5'-TET probe, hairpin target-INVADER with overlapping probe flap

| Binder | cleavage rate (Pfu4M FEN1; label: 5'-TET, X-structure) | cleavage rate (Pho FEN1) | cleavage rate (Pho4M FEN1; label: 5'-TET, X-structure) | cleavage rate (Pho3M FEN1; label: 5'-TET, X-structure) | cleavage rate (Pfu2M FEN1; label: 5'-TET, X-structure) | cleavage rate (Pfu4M FEN1; [1]) | cleavage rate (Pho4M FEN1; [1]) | cleavage rate (Pho3M FEN1; [1]) | cleavage rate (Pfu2M FEN1; [1]) |
| --- | --- | --- | --- | --- | --- | --- | --- | --- | --- |
| B1 | 62 | 120 | 2.2 | 6.6 | 3 |  |  |  |  |
| B2 |  |  |  |  |  | 2.2 | 1.3 | 0.95 | 1.4 |
